Data reported in article PMC7954794 (2021).

B1: S. cerevisiae Abp1 (full length; SH3 domain 535-592 mutated) / Hua2 (parent complex)
chain 1: MALEPIDYTTHSREIDAEYLKIVRGSDPDTTWLIISPNAKKEYEPESTGSSFHDFLQLFDETKVQYGLARVSPPGSDVEKIIIIGWCPDSAPLKTRASFAANFAAVANNLFKGYHVQVTARDEDDLDENELLMKISNAAGARYSIQTSSKQQGKASTPPVKKSFTPSKSPAPVSKKEPVKTPSPAPAAKISSRVNDNNDDDDWNEPELKERDFDQAPLKPNQSSYKPIGKIDLQKVIAEEKAKEDPRLVQKPTAAGSKIDPSSDIANLKNESKLKRDSEFNSFLGTTKPPSMTESSLKNDDDKVIKGFRNEKSPAQLWAERKAKQNSGNAETKAEAPKPEVPEDEPEGEPDVKDLKSKFEGLAASEKEEEEMENKFAPPPKKSEPTIISPKPFSKPQEPVKAEEAEQPKTDYKKIGNPLPGMHIEADNEEEPEENDDDWDDDEDEAAQPPLPSRNVASGAPVQKEEPEQEEIAPSLPSRNSIPAPKQEEAPEQAPEEEIEEEAEEAAPQLPSRSSAAPPPPPRRATPEKKPKENPWATAEYDYDAAEDNELTFVENDKIINIEFVDDDWWLGELEKDGSKGLFPSNYVSLGN
chain 2: MQQTKFGKMYLDHDSVVEYSEDEIVEADRITLGYKKRLSMIENQMRHLLEDFSLDVQQIEPILADLQKYYDAFLQLLQKRNKSLQCKRSTHQPVPSPMNSQTSTNAKVNLSGKLMKFQLNSVQKFDEENILRILQNKIEFEHYFQIDKGKKQKVLLLAVYQCLNGPTRLHKVLNIEGIIHNNSIRTILGKQVSSSKWTVFLYDVKLVLLAHRQDVPNLETSKMIVRYGDLFPCALYFKDHTAY

Variants of: B1
Assay: DHFR protein-fragment complementation in yeast (Abp1-DHFR F[1,2] x partner-DHFR F[3]), deep mutational scanning, second methotrexate selection vs reference; S. cerevisiae, DHFR-PCA selection in liquid with methotrexate at 30 C, two 72 h selections (the score uses the second); reference = the pre-selection culture

| screen value | Variant |
| --- | --- |
| 0.868 DMS score: mean over two replicates of log2(f_test/f_ref + 0.5)/ln 2, minus the synonymous-codon median (not a log2 … | chain 1 F553M |
| -0.172 DMS score: mean over two replicates of log2(f_test/f_ref + 0.5)/ln 2, minus the synonymous-codon median (not a log2 … | chain 1 A539V |
| -0.373 DMS score: mean over two replicates of log2(f_test/f_ref + 0.5)/ln 2, minus the synonymous-codon median (not a log2 … | chain 1 K576A |
| -0.496 DMS score: mean over two replicates of log2(f_test/f_ref + 0.5)/ln 2, minus the synonymous-codon median (not a log2 … | chain 1 K576C |
| 0.467 DMS score: mean over two replicates of log2(f_test/f_ref + 0.5)/ln 2, minus the synonymous-codon median (not a log2 … | chain 1 K576R |
| -0.475 DMS score: mean over two replicates of log2(f_test/f_ref + 0.5)/ln 2, minus the synonymous-codon median (not a log2 … | chain 1 K576T |
| 1.38 DMS score: mean over two replicates of log2(f_test/f_ref + 0.5)/ln 2, minus the synonymous-codon median (not a log2 … | chain 1 N549T |
| 0.356 DMS score: mean over two replicates of log2(f_test/f_ref + 0.5)/ln 2, minus the synonymous-codon median (not a log2 … | chain 1 N549I |
| 1.83 DMS score: mean over two replicates of log2(f_test/f_ref + 0.5)/ln 2, minus the synonymous-codon median (not a log2 … | chain 1 N549S |
| 0.763 DMS score: mean over two replicates of log2(f_test/f_ref + 0.5)/ln 2, minus the synonymous-codon median (not a log2 … | chain 1 N549L |
| 1.68 DMS score: mean over two replicates of log2(f_test/f_ref + 0.5)/ln 2, minus the synonymous-codon median (not a log2 … | chain 1 N549M |
| -1.11 DMS score: mean over two replicates of log2(f_test/f_ref + 0.5)/ln 2, minus the synonymous-codon median (not a log2 … | chain 1 E540S |
| -0.981 DMS score: mean over two replicates of log2(f_test/f_ref + 0.5)/ln 2, minus the synonymous-codon median (not a log2 … | chain 1 E540T |
| -2.86 DMS score: mean over two replicates of log2(f_test/f_ref + 0.5)/ln 2, minus the synonymous-codon median (not a log2 … | chain 1 E540Y |
| -1.77 DMS score: mean over two replicates of log2(f_test/f_ref + 0.5)/ln 2, minus the synonymous-codon median (not a log2 … | chain 1 E540N |
| 0.44 DMS score: mean over two replicates of log2(f_test/f_ref + 0.5)/ln 2, minus the synonymous-codon median (not a log2 … | chain 1 E540D |
| -2.91 DMS score: mean over two replicates of log2(f_test/f_ref + 0.5)/ln 2, minus the synonymous-codon median (not a log2 … | chain 1 E540I |
| -1.6 DMS score: mean over two replicates of log2(f_test/f_ref + 0.5)/ln 2, minus the synonymous-codon median (not a log2 … | chain 1 Y541A |
| 0.195 DMS score: mean over two replicates of log2(f_test/f_ref + 0.5)/ln 2, minus the synonymous-codon median (not a log2 … | chain 1 D548Q |
| -0.639 DMS score: mean over two replicates of log2(f_test/f_ref + 0.5)/ln 2, minus the synonymous-codon median (not a log2 … | chain 1 D548W |
| -0.301 DMS score: mean over two replicates of log2(f_test/f_ref + 0.5)/ln 2, minus the synonymous-codon median (not a log2 … | chain 1 D548G |
| 0.141 DMS score: mean over two replicates of log2(f_test/f_ref + 0.5)/ln 2, minus the synonymous-codon median (not a log2 … | chain 1 D548C |
| 1.53 DMS score: mean over two replicates of log2(f_test/f_ref + 0.5)/ln 2, minus the synonymous-codon median (not a log2 … | chain 1 D548P |
| 0.00293 DMS score: mean over two replicates of log2(f_test/f_ref + 0.5)/ln 2, minus the synonymous-codon median (not a log2 … | chain 1 D548H |
| -2.4 DMS score: mean over two replicates of log2(f_test/f_ref + 0.5)/ln 2, minus the synonymous-codon median (not a log2 … | chain 1 Y587T |

| screen value | Variant |
| --- | --- |
| -2.96 DMS score: mean over two replicates of log2(f_test/f_ref + 0.5)/ln 2, minus the synonymous-codon median (not a log2 … | chain 1 Y587K |
| 1.47 DMS score: mean over two replicates of log2(f_test/f_ref + 0.5)/ln 2, minus the synonymous-codon median (not a log2 … | chain 1 Y587L |
| -1.01 DMS score: mean over two replicates of log2(f_test/f_ref + 0.5)/ln 2, minus the synonymous-codon median (not a log2 … | chain 1 Y587C |
| -0.415 DMS score: mean over two replicates of log2(f_test/f_ref + 0.5)/ln 2, minus the synonymous-codon median (not a log2 … | chain 1 I560T |
| 0.102 DMS score: mean over two replicates of log2(f_test/f_ref + 0.5)/ln 2, minus the synonymous-codon median (not a log2 … | chain 1 I560R |
| 0.427 DMS score: mean over two replicates of log2(f_test/f_ref + 0.5)/ln 2, minus the synonymous-codon median (not a log2 … | chain 1 I560K |
| -0.852 DMS score: mean over two replicates of log2(f_test/f_ref + 0.5)/ln 2, minus the synonymous-codon median (not a log2 … | chain 1 I560F |
| -0.924 DMS score: mean over two replicates of log2(f_test/f_ref + 0.5)/ln 2, minus the synonymous-codon median (not a log2 … | chain 1 I560E |
| 0.263 DMS score: mean over two replicates of log2(f_test/f_ref + 0.5)/ln 2, minus the synonymous-codon median (not a log2 … | chain 1 I560M |
| -1.03 DMS score: mean over two replicates of log2(f_test/f_ref + 0.5)/ln 2, minus the synonymous-codon median (not a log2 … | chain 1 T552H |
| -0.688 DMS score: mean over two replicates of log2(f_test/f_ref + 0.5)/ln 2, minus the synonymous-codon median (not a log2 … | chain 1 T552D |
| -0.374 DMS score: mean over two replicates of log2(f_test/f_ref + 0.5)/ln 2, minus the synonymous-codon median (not a log2 … | chain 1 T552N |
| 0.616 DMS score: mean over two replicates of log2(f_test/f_ref + 0.5)/ln 2, minus the synonymous-codon median (not a log2 … | chain 1 T552S |
| 0.75 DMS score: mean over two replicates of log2(f_test/f_ref + 0.5)/ln 2, minus the synonymous-codon median (not a log2 … | chain 1 E573T |
| -0.0881 DMS score: mean over two replicates of log2(f_test/f_ref + 0.5)/ln 2, minus the synonymous-codon median (not a log2 … | chain 1 E573Q |
| -0.956 DMS score: mean over two replicates of log2(f_test/f_ref + 0.5)/ln 2, minus the synonymous-codon median (not a log2 … | chain 1 N561H |
| 0.347 DMS score: mean over two replicates of log2(f_test/f_ref + 0.5)/ln 2, minus the synonymous-codon median (not a log2 … | chain 1 E555K |
| 0.557 DMS score: mean over two replicates of log2(f_test/f_ref + 0.5)/ln 2, minus the synonymous-codon median (not a log2 … | chain 1 E555T |
| -0.0654 DMS score: mean over two replicates of log2(f_test/f_ref + 0.5)/ln 2, minus the synonymous-codon median (not a log2 … | chain 1 E555V |
| -0.165 DMS score: mean over two replicates of log2(f_test/f_ref + 0.5)/ln 2, minus the synonymous-codon median (not a log2 … | chain 1 E555L |
| -0.189 DMS score: mean over two replicates of log2(f_test/f_ref + 0.5)/ln 2, minus the synonymous-codon median (not a log2 … | chain 1 E555Y |
| 1.03 DMS score: mean over two replicates of log2(f_test/f_ref + 0.5)/ln 2, minus the synonymous-codon median (not a log2 … | chain 1 E555A |
| -2.62 DMS score: mean over two replicates of log2(f_test/f_ref + 0.5)/ln 2, minus the synonymous-codon median (not a log2 … | chain 1 F564K |
| 0.127 DMS score: mean over two replicates of log2(f_test/f_ref + 0.5)/ln 2, minus the synonymous-codon median (not a log2 … | chain 1 F564Y |
| -2.96 DMS score: mean over two replicates of log2(f_test/f_ref + 0.5)/ln 2, minus the synonymous-codon median (not a log2 … | chain 1 F564R |

| screen value | Variant |
| --- | --- |
| 0.421 DMS score: mean over two replicates of log2(f_test/f_ref + 0.5)/ln 2, minus the synonymous-codon median (not a log2 … | chain 1 F564M |
| 0.252 DMS score: mean over two replicates of log2(f_test/f_ref + 0.5)/ln 2, minus the synonymous-codon median (not a log2 … | chain 1 N592V |
| -0.463 DMS score: mean over two replicates of log2(f_test/f_ref + 0.5)/ln 2, minus the synonymous-codon median (not a log2 … | chain 1 N592K |
| 0.311 DMS score: mean over two replicates of log2(f_test/f_ref + 0.5)/ln 2, minus the synonymous-codon median (not a log2 … | chain 1 N592I |
| 0.755 DMS score: mean over two replicates of log2(f_test/f_ref + 0.5)/ln 2, minus the synonymous-codon median (not a log2 … | chain 1 N592P |
| 0.472 DMS score: mean over two replicates of log2(f_test/f_ref + 0.5)/ln 2, minus the synonymous-codon median (not a log2 … | chain 1 N592L |
| 0.524 DMS score: mean over two replicates of log2(f_test/f_ref + 0.5)/ln 2, minus the synonymous-codon median (not a log2 … | chain 1 T538V |
| -0.703 DMS score: mean over two replicates of log2(f_test/f_ref + 0.5)/ln 2, minus the synonymous-codon median (not a log2 … | chain 1 T538K |
| -0.148 DMS score: mean over two replicates of log2(f_test/f_ref + 0.5)/ln 2, minus the synonymous-codon median (not a log2 … | chain 1 T538Y |
| -0.268 DMS score: mean over two replicates of log2(f_test/f_ref + 0.5)/ln 2, minus the synonymous-codon median (not a log2 … | chain 1 T538C |
| -0.124 DMS score: mean over two replicates of log2(f_test/f_ref + 0.5)/ln 2, minus the synonymous-codon median (not a log2 … | chain 1 G591L |
| 0.26 DMS score: mean over two replicates of log2(f_test/f_ref + 0.5)/ln 2, minus the synonymous-codon median (not a log2 … | chain 1 G591F |
| 0.45 DMS score: mean over two replicates of log2(f_test/f_ref + 0.5)/ln 2, minus the synonymous-codon median (not a log2 … | chain 1 G591K |
| -0.841 DMS score: mean over two replicates of log2(f_test/f_ref + 0.5)/ln 2, minus the synonymous-codon median (not a log2 … | chain 1 W536E |
| -0.883 DMS score: mean over two replicates of log2(f_test/f_ref + 0.5)/ln 2, minus the synonymous-codon median (not a log2 … | chain 1 W536H |
| -0.671 DMS score: mean over two replicates of log2(f_test/f_ref + 0.5)/ln 2, minus the synonymous-codon median (not a log2 … | chain 1 G578S |
| -0.619 DMS score: mean over two replicates of log2(f_test/f_ref + 0.5)/ln 2, minus the synonymous-codon median (not a log2 … | chain 1 G578K |
| 0.0866 DMS score: mean over two replicates of log2(f_test/f_ref + 0.5)/ln 2, minus the synonymous-codon median (not a log2 … | chain 1 G578N |
| -0.676 DMS score: mean over two replicates of log2(f_test/f_ref + 0.5)/ln 2, minus the synonymous-codon median (not a log2 … | chain 1 Y543H |
| 0.711 DMS score: mean over two replicates of log2(f_test/f_ref + 0.5)/ln 2, minus the synonymous-codon median (not a log2 … | chain 1 D544R |
| 1.15 DMS score: mean over two replicates of log2(f_test/f_ref + 0.5)/ln 2, minus the synonymous-codon median (not a log2 … | chain 1 D544C |
| 0.42 DMS score: mean over two replicates of log2(f_test/f_ref + 0.5)/ln 2, minus the synonymous-codon median (not a log2 … | chain 1 D544S |
| -0.421 DMS score: mean over two replicates of log2(f_test/f_ref + 0.5)/ln 2, minus the synonymous-codon median (not a log2 … | chain 1 A545G |
| -0.863 DMS score: mean over two replicates of log2(f_test/f_ref + 0.5)/ln 2, minus the synonymous-codon median (not a log2 … | chain 1 N586L |
| 2.37 DMS score: mean over two replicates of log2(f_test/f_ref + 0.5)/ln 2, minus the synonymous-codon median (not a log2 … | chain 1 N586G |
